From publication PMC3380378 come the findings set out here.

What all share (experiment): purified protein
In data set [1] the test system is O=C(O)C(=O)C[C@@H](O)[C@@H](O)[C@H](O)[C@H](O)COP(=O)(O)O. To be noted: Mg2+; pH 10.0.
Substrate in data set [2]: Nc1ccn([C@@H]2O[C@H](COP(=O)(O)OP(=O)(O)OP(=O)(O)O)[C@@H](O)[C@H]2O)c(=O)n1
The data set is classed as biochemical, Escherichia coli. To be noted: Mg2+; pH 9.3.

Substrate in data set [3]: O=C(O)C(=O)C[C@@H](O)[C@@H](O)[C@H](O)[C@H](O)CO
The data set is classed as biochemical, Escherichia coli. The settings on record: Mg2+; pH 9.3.

By Km is commonly meant the concentration of substrate that gives half-maximal velocity. Consider “3-deoxy-D-manno-octulosonic acid 8-phosphate phosphatase (KdsC) (Escherichia coli K-12)”, for which the Km in data set [1] came to 370 ± 10 µM.

B1: 3-deoxy-D-manno-octulosonate cytidylyltransferase (KdsB, CMP-KDO synthetase) (Escherichia coli K-12) (protein)
chain: MSFVVIIPARYASTRLPGKPLVDINGKPMIVHVLERARESGAERIIVATDHEDVARAVEAAGGEVCMTRADHQSGTERLAEVVEKCAFSDDTVIVNVQGDEPMIPATIIRQVADNLAQRQVGMATLAVPIHNAEEAFNPNAVKVVLDAEGYALYFSRATIPWDRDRFAEGLETVGDNFLRHLGIYGYRAGFIRRYVNWQPSPLEHIEMLEQLRVLWYGEKIHVAVAQEVPGTGVDTPEDLERVRAEMR
In the case of B1, the results for the Km in “purified protein [2]” and in “purified protein [3]” were 330 ± 40 µM and 280 ± 20 µM, respectively.
